Article PMC6308003, “Nitric Oxide Production from Nitrite Reduction and Hydroxylamine Oxidation by Copper-containing Dissimilatory Nitrite Reductase (NirK) from the Aerobic Ammonia-oxidizing Archaeon, Nitrososphaera viennensis” (Microbes and Environments, 2018)

Key:
purified protein = substrate: O=NO; assay: purified protein; assay type: biochemical, Nitrososphaera viennensis; conditions: anoxic, 0.5 mM benzyl viologen, 0.24 mM dithionite, 20 mM phosphate pH 6.5, 25°C, labelled compound
[1] = substrate: NO; assay: colorimetric NH2OH consumption; assay type: biochemical, Nitrososphaera viennensis; conditions: aerobic, dissolved O2 as oxidant, pH 7.5, 30°C
Excerpt: colorimetric NH2OH consumption on Ns. viennensis NirK

B1: Ns. viennensis NirK (Nitrososphaera viennensis EN76) (protein)
chain: APTGVTRHYTLIANEMEVQVAPDNALHPGGIKYNAMVFNGTIPGPVMASNAGDTVEITLKNEGKQIHSIDFHAAIGPSQVLSGNIAAGESKTWTFNTPNSGAFMYHCGADALNGVWEHIANGMYGAFVVHPTNEAPAKEFYVAFGEIYNSADGGLFVGANGTGSFDIMKFATEQPDLILTNGMAHRYVPAIGQSVKLDLNANATVFQVKPGELTRWYILAPGPNEGVSFHFISGQIDVRDGSFKTRNMAPVRNEETWWIPVGSASVIESVFPEEGLYVGVDHNMAHVLRGGAFAVLATNNSTADDVPPEAWVPSKAWLNEHAEMGGSMMGGSAGNNATSGGNTTSG
notes: signal peptide Met1-Ala24 removed, 6xHis tag (pCold I), E. coli BL21(DE3), Cu-reconstituted
Km (purified protein): 287 µM
kcat (purified protein): 3.1 s⁻¹
Km [1]: 97 µM
kcat [1]: 0.039 s⁻¹
